The source of these data is PMC8101287, “Molecular characterization of HLA class II binding to the LAG‐3 T cell co‐inhibitory receptor” (European Journal of Immunology, 2020).

The target of this assay is HLA‐DR1 (HLA‐DRA1*01:01/HLA‐DRB*01:01) complexed with the HA_(306‐318) peptide, refolded from E. coli (human | ). The assay is described as follows: SPR. To be noted: both partners purified.

B1: LAG‐3:Fc fusion protein (four extracellular domains of LAG‐3 and the Fc domain of IgG) (Fc fusion)
chain: LQPGAEVPVVWAQEGAPAQLPCSPTIPLQDLSLLRRAGVTWQHQPDSGPPAAAPGHPLAPGPHPAAPSSWGPRPRRYTVLSVGPGGLRSGRLPLQPRVQLDERGRQRGDFSLWLRPARRADAGEYRAAVHLRDRALSCRLRLRLGQASMTASPPGSLRASDWVILNCSFSRPDRPASVHWFRNRGQGRVPVRESPHHHLAESFLFLPQVSPMDSGPWGCILTYRDGFNVSIMYNLTVLGLEPPTPLTVYAGAGSRVGLPCRLPAGVGTRSFLTAKWTPPGGGPDLLVTGDNGDFTLRLEDVSQAQAGTYTCHIHLQEQQLNATVTLAIITVTPKSFGSPGSLGKLLCEVTPVSGQERFVWSSLDTPSQRSFSGPWLEAQEAQLLSQPWQCQLYQGERLLGAAVYFTELSSPGAQRSGRAPGALPAGHL
Take B1: the Kd was found to be 13.1 µM.

Usually Kd stands for the concentration at which binding is half-saturated.
